For twelve molecules, Kd, koff and kon results are on record in patent US20230242651A1 (published 2023).

Positions count from the first letter of the chain named.

T1: human interleukin-23 receptor (IL23R) (human, UniProt Q5VWK5 24-355, limits assumed)
T1 construct: also called human IL23R
T1 sequence (looked up): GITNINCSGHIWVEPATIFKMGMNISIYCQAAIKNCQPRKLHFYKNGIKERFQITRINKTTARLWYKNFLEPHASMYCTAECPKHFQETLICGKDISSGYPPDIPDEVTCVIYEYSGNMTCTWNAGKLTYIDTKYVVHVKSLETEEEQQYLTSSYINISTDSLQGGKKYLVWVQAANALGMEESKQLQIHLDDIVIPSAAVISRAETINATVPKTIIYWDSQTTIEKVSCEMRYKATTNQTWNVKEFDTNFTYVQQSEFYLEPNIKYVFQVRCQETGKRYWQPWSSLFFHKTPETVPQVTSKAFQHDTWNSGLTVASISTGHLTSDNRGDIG

B1: Vκ1/VH4 consensus (uncapped), human IL23R specific scFv (scFv)
scFv: DIQMTQSPSSLSASVGDRVTITCQASENIYSFLAWYQQKPGKAPKLLIYSASKLAAGVPSRFSGSGSGTDFTLTISSLQPEDFATYYCQQTNRYSNPDIYNVFGQGTKVEIKRGGGGSGGGGSGGGGSGGGGSQVQLQESGPGLVKPSETLSLTCTVSGIDFNSNYYMCWIRQPPGKGLEWIGCIYVGSHVNTYYANWAKGRVTISVDTSKNQFSLKLSSVTAADTAVYYCATSGSSVLYFKFWGQGTLVTVSS
notes: scFv VL-linker-VH, made in E. coli; Vκ framework IV (uncapped, full consensus); also called Vκ1VH4 uncapped
B2: Vκ1/VH6 consensus (uncapped), human IL23R specific scFv (scFv)
scFv: DIQMTQSPSSLSASVGDRVTITCQASENIYSFLAWYQQKPGKAPKLLIYSASKLAAGVPSRFSGSGSGTDFTLTISSLQPEDFATYYCQQTNRYSNPDIYNVFGQGTKVEIKRGGGGSGGGGSGGGGSGGGGSQVQLQQSGPGLVKPSQTLSLTCAISGIDFNSNYYMCWIRQSPGRGLEWLGCIYVGSHVNTYYANWAKGRITINPDTSKNQFSLQLNSVTPEDTAVYYCATSGSSVLYFKFWGQGTLVTVSS
notes: scFv VL-linker-VH, made in E. coli; Vκ framework IV (uncapped, full consensus); also called Vκ1VH6 uncapped
B3: Vκ3/VH5 consensus (uncapped), human IL23R specific scFv (scFv)
scFv: DIVLTQSPATLSLSPGERATLSCQASENIYSFLAWYQQKPGQAPRLLIYSASKLAAGVPARFSGSGSGTDFTLTISSLEPEDFAVYYCQQTNRYSNPDIYNVFGQGTKVEIKRGGGGSGGGGSGGGGSGGGGSEVQLVQSGAEVKKPGESLKISCKGSGIDFNSNYYMCWVRQMPGKGLEWMGCIYVGSHVNTYYANWAKGQVTISADKSISTAYLQWSSLKASDTAMYYCATSGSSVLYFKFWGQGTLVTVSS
notes: scFv VL-linker-VH, made in E. coli; Vκ framework IV (uncapped, full consensus); also called Vκ3VH5 uncapped
B4: Vκ2/VH1A consensus (uncapped), human IL23R specific scFv (scFv)
scFv: DIVMTQSPLSLPVTPGEPASISCQASENIYSFLAWYLQKPGQSPQLLIYSASKLAAGVPDRFSGSGSGTDFTLKISRVEAEDVGVYYCQQTNRYSNPDIYNVFGQGTKVEIKRGGGGSGGGGSGGGGSGGGGSQVQLVQSGAEVKKPGSSVKVSCKASGIDFNSNYYMCWVRQAPGQGLEWMGCIYVGSHVNTYYANWAKGRVTITADESTSTAYMELSSLRSEDTAVYYCATSGSSVLYFKFWGQGTLVTVSS
notes: scFv VL-linker-VH, made in E. coli; Vκ framework IV (uncapped, full consensus); also called Vκ2VH1A uncapped
B5: Vκ3/VH6 consensus λ-capped, human IL23R specific scFv (scFv)
scFv: DIVLTQSPATLSLSPGERATLSCQASENIYSFLAWYQQKPGQAPRLLIYSASKLAAGVPARFSGSGSGTDFTLTISSLEPEDFAVYYCQQTNRYSNPDIYNVFGGGTKLTVLGGGGGSGGGGSGGGGSGGGGSQVQLQQSGPGLVKPSQTLSLTCAISGIDFNSNYYMCWIRQSPGRGLEWLGCIYVGSHVNTYYANWAKGRITINPDTSKNQFSLQLNSVTPEDTAVYYCATSGSSVLYFKFWGQGTLVTVSS
notes: scFv VL-linker-VH, made in E. coli; also called Vκ3VH6 capped
B6: Vκ1/VH1A consensus (uncapped), human IL23R specific scFv (scFv)
scFv: DIQMTQSPSSLSASVGDRVTITCQASENIYSFLAWYQQKPGKAPKLLIYSASKLAAGVPSRFSGSGSGTDFTLTISSLQPEDFATYYCQQTNRYSNPDIYNVFGQGTKVEIKRGGGGSGGGGSGGGGSGGGGSQVQLVQSGAEVKKPGSSVKVSCKASGIDFNSNYYMCWVRQAPGQGLEWMGCIYVGSHVNTYYANWAKGRVTITADESTSTAYMELSSLRSEDTAVYYCATSGSSVLYFKFWGQGTLVTVSS
notes: scFv VL-linker-VH, made in E. coli; Vκ framework IV (uncapped, full consensus); also called Vκ1VH1A uncapped
B7: Vκ1/VH1B consensus (uncapped), human IL23R specific scFv (scFv)
scFv: B6 scFv with S149A, I205M, A207R, E209T, T211I
notes: scFv VL-linker-VH, made in E. coli; Vκ framework IV (uncapped, full consensus); also called Vκ1VH1B uncapped
B8: Vκ1/VH2 consensus (uncapped), human IL23R specific scFv (scFv)
scFv: DIQMTQSPSSLSASVGDRVTITCQASENIYSFLAWYQQKPGKAPKLLIYSASKLAAGVPSRFSGSGSGTDFTLTISSLQPEDFATYYCQQTNRYSNPDIYNVFGQGTKVEIKRGGGGSGGGGSGGGGSGGGGSQVQLKESGPALVKPTQTLTLTCTFSGIDFNSNYYMCWIRQPPGKALEWLACIYVGSHVNTYYANWAKGRLTISKDTSKNQVVLTMTNMDPVDTATYYCATSGSSVLYFKFWGQGTLVTVSS
notes: scFv VL-linker-VH, made in E. coli; Vκ framework IV (uncapped, full consensus); also called Vκ1VH2 uncapped
B9: Vκ3/VH4 consensus (uncapped), human IL23R specific scFv (scFv)
scFv: DIVLTQSPATLSLSPGERATLSCQASENIYSFLAWYQQKPGQAPRLLIYSASKLAAGVPARFSGSGSGTDFTLTISSLEPEDFAVYYCQQTNRYSNPDIYNVFGQGTKVEIKRGGGGSGGGGSGGGGSGGGGSQVQLQESGPGLVKPSETLSLTCTVSGIDFNSNYYMCWIRQPPGKGLEWIGCIYVGSHVNTYYANWAKGRVTISVDTSKNQFSLKLSSVTAADTAVYYCATSGSSVLYFKFWGQGTLVTVSS
notes: scFv VL-linker-VH, made in E. coli; Vκ framework IV (uncapped, full consensus); also called Vκ3VH4 uncapped
B10: Vκ1/VH3 consensus (uncapped), human IL23R specific scFv (scFv)
scFv: DIQMTQSPSSLSASVGDRVTITCQASENIYSFLAWYQQKPGKAPKLLIYSASKLAAGVPSRFSGSGSGTDFTLTISSLQPEDFATYYCQQTNRYSNPDIYNVFGQGTKVEIKRGGGGSGGGGSGGGGSGGGGSEVQLVESGGGLVQPGGSLRLSCAASGIDFNSNYYMCWVRQAPGKGLEWVSCIYVGSHVNTYYANWAKGRFTISRDNSKNTLYLQMNSLRAEDTAVYYCATSGSSVLYFKFWGQGTLVTVSS
notes: scFv VL-linker-VH, made in E. coli; Vκ framework IV (uncapped, full consensus); also called Vκ1VH3 uncapped
B11: Vκ1/VH5 consensus (uncapped), human IL23R specific scFv (scFv)
scFv: DIQMTQSPSSLSASVGDRVTITCQASENIYSFLAWYQQKPGKAPKLLIYSASKLAAGVPSRFSGSGSGTDFTLTISSLQPEDFATYYCQQTNRYSNPDIYNVFGQGTKVEIKRGGGGSGGGGSGGGGSGGGGSEVQLVQSGAEVKKPGESLKISCKGSGIDFNSNYYMCWVRQMPGKGLEWMGCIYVGSHVNTYYANWAKGQVTISADKSISTAYLQWSSLKASDTAMYYCATSGSSVLYFKFWGQGTLVTVSS
notes: scFv VL-linker-VH, made in E. coli; Vκ framework IV (uncapped, full consensus); also called Vκ1VH5 uncapped
B12: Vκ3/VH3 consensus (uncapped), human IL23R specific scFv (scFv)
scFv: DIVLTQSPATLSLSPGERATLSCQASENIYSFLAWYQQKPGQAPRLLIYSASKLAAGVPARFSGSGSGTDFTLTISSLEPEDFAVYYCQQTNRYSNPDIYNVFGQGTKVEIKRGGGGSGGGGSGGGGSGGGGSEVQLVESGGGLVQPGGSLRLSCAASGIDFNSNYYMCWVRQAPGKGLEWVSCIYVGSHVNTYYANWAKGRFTISRDNSKNTLYLQMNSLRAEDTAVYYCATSGSSVLYFKFWGQGTLVTVSS
notes: scFv VL-linker-VH, made in E. coli; Vκ framework IV (uncapped, full consensus); also called Vκ3VH3 uncapped

The first test has as its target T1, human interleukin-23 receptor (IL23R). Kind of test: SPR, scFv (summary table). Put shortly: (§1)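 Affinity values for human IL23R come from surface plasmon resonance, expressed as rate constants and dissociation constant or as the λ-capped to uncapped dissociation-constant ratio. The tested molecules were humanized rabbit scFv on consensus germline framework pairs, either uncapped or with Vκ framework IV replaced by a Vλ germline sequence (λ-cap), refolded from E. coli inclusion bodies.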
In general terms: In SPR one partner is held on a chip, and binding of the other changes the refractive index at the surface.
Usually Kd stands for the concentration at which binding is half-saturated. Lower therefore signals higher affinity. Consider B1, for which the Kd came to 0.0991 nM.

For the molecule B2, the Kd came to 0.251 nM.

Turning to B3, the Kd was found to be 0.525 nM.

The molecule B4 returned a Kd of 0.222 nM.

The molecule B5 registered a Kd of 0.394 nM.

Molecule B6 returned a Kd of 0.02 nM.

B7 gave a Kd of 0.168 nM.

In turn, B8 registered a Kd of 0.211 nM.

On to B9, for which the Kd was found to be 0.139 nM.

For the molecule B10, the Kd stood at 0.0347 nM.

The molecule B11 returned a Kd of 0.239 nM.

Consider B12, for which the Kd turned out to be 0.0395 nM.

The next test shares this target. Description: SPR, scFv. An outline of the steps:
as §1
For orientation: koff means a measure of how fast the partners let go of each other. Low values mean a long-lived complex, high ones a short-lived complex. What is called kon is the rate constant with which the complex forms. In turn, B1 yielded a Kd of 0.0991 nM, a koff of 0.000176 s⁻¹ and a kon of 1.78e+06 M⁻¹ s⁻¹.

The molecule B2 came in with a Kd of 0.251 nM, a koff of 0.000309 s⁻¹ and a kon of 1.23e+06 M⁻¹ s⁻¹.

B3 registered a Kd of 0.525 nM, a koff of 0.000904 s⁻¹ and a kon of 1.72e+06 M⁻¹ s⁻¹.

Molecule B4 gave a Kd of 0.222 nM, a koff of 0.000279 s⁻¹ and a kon of 1.26e+06 M⁻¹ s⁻¹.

On to B5, for which the Kd turned out to be 0.394 nM, the koff worked out at 0.000563 s⁻¹ and the kon stood at 1.43e+06 M⁻¹ s⁻¹.

The molecule B6 gave a Kd of 0.02 nM, a koff of 0.000128 s⁻¹ and an association rate constant (kon) of 6.42e+06 M⁻¹ s⁻¹.

For B7, the Kd stood at 0.168 nM, the koff was found to be 0.000413 s⁻¹ and the kon worked out at 2.45e+06 M⁻¹ s⁻¹.

The molecule B8 gave a Kd of 0.211 nM, a koff of 0.000333 s⁻¹ and a kon of 1.58e+06 M⁻¹ s⁻¹.

On to B9, for which the Kd amounted to 0.139 nM, the koff stood at 0.000263 s⁻¹ and the kon was 1.89e+06 M⁻¹ s⁻¹.

As to B10, the affinity, expressed as Kd, was 0.0347 nM; the koff stood at 5.28e-05 s⁻¹; the kon was 1.52e+06 M⁻¹ s⁻¹.

Consider B11, for which the Kd amounted to 0.239 nM, the koff is 0.000538 s⁻¹ and the kon was found to be 2.25e+06 M⁻¹ s⁻¹.

Turning to B12, binding was characterised by a dissociation constant (Kd) of 0.0395 nM, the koff came to 6.52e-05 s⁻¹ and the kon was 1.65e+06 M⁻¹ s⁻¹.
